Laboratory results taken from patent US20180155451A1 (published 2018).
Where a chain is given by its changes, count along the chain named. In names and notes the source's numbering stands.

How the values were obtained:
Protein A = biological target: T1, Protein A (UniProt P38507 37-327); experiment: rProtein A Sepharose column, stepwise pH elution; fractions analysed by cation exchange chromatography
T1 construct: bought resin; construct not described; also called rProtein A Sepharose Fast Flow

[1] = biological target: T2, FcgRIIb extracellular domain with C-terminal His tag (human, UniProt P31994 43-217); experiment: SPR (Biacore); KD of the sample for FcgRIIaR divided by its KD for FcgRIIb (selectivity for FcgRIIb)
T2 construct: extracellular domain; Expressed in FreeStyle293 cells; also called FcγRIIb; 2b; not shown: His tag at the C terminus
T2 sequence (looked up): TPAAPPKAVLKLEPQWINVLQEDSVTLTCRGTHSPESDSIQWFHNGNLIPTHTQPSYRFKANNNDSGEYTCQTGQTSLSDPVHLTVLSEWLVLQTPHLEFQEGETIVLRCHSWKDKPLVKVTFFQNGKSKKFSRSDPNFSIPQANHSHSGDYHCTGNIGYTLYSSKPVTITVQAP
Protocol: (§1) Analysis of interaction between obj ective antibody and the FcγR was carried out using Biacore T100 (GE Healthcare), Biacore T200, Biacore A100, and Biacore 4000. HBS-EP+ (GE Healthcare) was used as the running buffer, and the measurement temperature was set to 25° C. Chips produced by immobilizing the antigen peptide by the amine coupling method to a Series S sensor Chip CM5 (GE Healthcare), chips produced by allowing preliminarily biotinylated antigen peptides to interact with and immobilize onto a Series S Sensor Chip SA (certified) (GE Healthcare), chips produced by immobilizing Protein L (ACTIGEN, BioVision) to Series S Sencor Chip CM5 (GE Healthcare), or chips produced by immobilizing Protein A/G (Thermo Scientific) to Series S Sencor Chip CM5 (GE Healthcare) were used. Antibodies of interest were captured onto these chips, and allowed to interact to each FcγR diluted with running buffer. To regenerate and repeatedly use the chip, the antibodies captured onto the chip were washed off by reacting 10 mM glycine-HCl, pH 1.5.

[2] = biological target: T3, FcgRIIIa type V extracellular domain with C-terminal His tag (human, UniProt P08637 17-208); experiment: SPR (Biacore), antibody captured on chip, soluble FcgR as analyte; too weak for kinetics, KD from steady-state 1:1 equation
T3 construct: extracellular domain; also called FcgRIIIaV; FcgRIIIa V; not shown: His tag at the C terminus
Protocol: (§2) KD can be calculated by substituting the values of Rmax, RI, and C into this equation. The values of RI and C can be determined from the sensorgram of the measurement results and measurement conditions. Rmax was calculated according to the following method.

[3] = biological target: T4, FcgRIIa type H extracellular domain with C-terminal His tag (human, UniProt P12318 34-217); experiment: as above
T4 construct: extracellular domain; also called FcgRIIaH; FcgRIIa H; not shown: His tag at the C terminus
T4 sequence (looked up): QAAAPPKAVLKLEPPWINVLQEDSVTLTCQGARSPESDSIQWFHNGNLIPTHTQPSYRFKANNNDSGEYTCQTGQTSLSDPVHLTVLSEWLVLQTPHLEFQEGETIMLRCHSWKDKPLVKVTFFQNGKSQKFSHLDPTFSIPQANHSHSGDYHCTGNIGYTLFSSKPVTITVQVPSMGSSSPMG
Protocol: as §2

[4] = biological target: T2, FcgRIIb extracellular domain with …; experiment: SPR (Biacore), antibody captured on chip, soluble FcgR as analyte, kinetic 1:1 fit
Protocol: (§3) The variants were assessed for the binding activity to FcgR Ia, FcgR IIaR, FcgR IIaH, and FcgRIIb according to the method described in Reference Example 8.
as §1

[5] = biological target: T5, FcgRIIa type R extracellular domain with C-terminal His tag (human, UniProt P12318 34-217); experiment: as above
T5 construct: extracellular domain; also called FcgRIIaR; FcgRIIa R; not shown: His tag at the C terminus
T5 sequence (looked up): T4 sequence (looked up) with H134R
Protocol: as §3, §1

[6] = biological target: T6, FcgRIa extracellular domain with C-terminal His tag (human, UniProt P12314 16-292); experiment: as above
T6 construct: extracellular domain; Expressed in FreeStyle293 cells; also called FcγRIa; not shown: His tag at the C terminus
Protocol: as §3, §1

[7] = biological target: T2, FcgRIIb extracellular domain with …; experiment: SPR (Biacore); KD of IL6R-B3/IL6R-L for this FcgR divided by KD of the sample
Protocol: as §1

[8] = biological target: T5, FcgRIIa type R extracellular domain …; experiment: as above
Protocol: as §1

[9] = biological target: T4, FcgRIIa type H extracellular domain …; experiment: as above
Protocol: as §1

[10] = biological target: T4, FcgRIIa type H extracellular domain …; experiment: SPR (Biacore), antibody captured on chip, soluble FcgR as analyte, kinetic 1:1 fit
Protocol: as §3, §1

T6 sequence (P12314 16-292): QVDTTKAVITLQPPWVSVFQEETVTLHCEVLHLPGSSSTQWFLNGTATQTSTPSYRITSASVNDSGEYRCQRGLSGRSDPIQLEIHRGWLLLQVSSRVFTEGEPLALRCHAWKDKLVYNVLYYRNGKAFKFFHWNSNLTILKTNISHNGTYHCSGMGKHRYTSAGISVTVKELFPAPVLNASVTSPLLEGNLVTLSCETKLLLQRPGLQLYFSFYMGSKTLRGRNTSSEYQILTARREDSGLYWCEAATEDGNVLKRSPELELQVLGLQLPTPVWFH
T3 sequence (P08637 17-208 F176V): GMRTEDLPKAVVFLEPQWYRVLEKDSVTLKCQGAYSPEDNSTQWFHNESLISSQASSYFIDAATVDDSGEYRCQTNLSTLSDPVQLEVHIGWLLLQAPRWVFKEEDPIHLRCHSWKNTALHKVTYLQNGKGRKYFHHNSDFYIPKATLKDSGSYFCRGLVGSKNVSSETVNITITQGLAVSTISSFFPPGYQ

B1: J142-z72/L180-k (antibody, human IgG4 S228P, kappa)
heavy: QVQLVQSGSELKKPGASVKVSCKASGYTFTDNNMDWVRQAPGQGLEWMGDINTRSGGSIYNEEFQDRVTMTIDKSTGTAYMELSSLRSEDTAVYYCARRRSYGYYHDEWGEGTLVTVSSASTKGPSVFPLAPCSRSTSESTAALGCLVKDYFPEPVTVSWNSGALTSGVHTFPAVLQSSGLYSLSSVVTVPSSSLGTKTYTCNVDHKPSNTKVDKRVESKYGPPCPPCPAPEFLGGPSVFLFPPKPKDTLMISRTPEVTCVVVDVSQEDPEVQFNWYVDGVEVHNAKTKPREEQFNSTYRVVSVLTVLHQDWLNGKEYKCKVSNKGLPSSIEKTISKAKGQPREPQVYTLPPSQEEMTKNQVSLTCLVKGFYPSDIAVEWESNGQPENNYKTTPPVLDSDGSFFLYSRLTVDKSRWQEGNVFSCSVMHEALHNRFTQKSLSLSP
light: DIQMTQSPSSLSASVGDRVTITCKASRNIERNLAWYQQKPGQAPELLIYSASRKESGVPDRFSGSRYGTDFTLTISSLQPEDLATYYCQQYYSPPLTFGGGTKVEIKRTVAAPSVFIFPPSDEQLKSGTASVVCLLNNFYPREAKVQWKVDNALQSGNSQESVTEQDSKDSTYSLSSTLTLSKADYEKHKVYACEVTHQGLSSPVTKSFNRGEC
notes: also called homomeric antibody against FX
binding result (Protein A): no binding

B2: J300-z107/L210-k (antibody, human IgG4 S228P, kappa)
heavy: QVQLVQSGSELKKPGASVKVSCKASGYTFTDNNMDWVRQAPGQGLEWMGDINTRSGGSIYNEEFQDRVIMTVDKSTDTAYMELSSLRSEDTAVYHCARRKSYGYYLDEWGEGTLVTVSSASTKGPSVFPLAPCSRSTSESTAALGCLVKDYFPEPVTVSWNSGALTSGVHTFPAVLQSSGLYSLSSVVTVPSSSLGTQTYTCNVDHKPSNTKVDKRVESKYGPPCPPCPAPEFLGGPSVFLFPPKPKDTLMISRTPEVTCVVVDVSQEDPEVQFNWYVDGVEVHNAKTKPREEQYNSTYRVVSVLTVLHQDWLNGKEYKCKVSNKGLPSSIEKTISKAKGQPREPQVYTLPPSQEEMTKNQVSLTCLVKGFYPSDIAVEWESNGQPENNYKTTPPVLDSDGSFFLYSKLTVDKSRWQEGNVFSCSVMHEALHNRYTQESLSLSP
light: B1 light with L83I, Y92S
notes: z107 carries H435R; also called homomeric antibody against FX
binding result (Protein A): no binding

B3: J142-z73/L180-k (antibody, human IgG4 S228P, kappa)
heavy: B1 heavy with K438E
light: B1 light
notes: as for B1
binding result (Protein A): no binding

B4: IL6R-BP256/IL6R-L (antibody, human IgG1, kappa)
heavy: QVQLQESGPGLVKPSETLSLTCAVSGHSISHDHAWSWVRQPPGEGLEWIGFISYSGITNYNPSLQGRVTISRDNSKNTLYLQMNSLRAEDTAVYYCARSLARTTAMDYWGEGTLVTVSSASTKGPSVFPLAPSSKSTSGGTAALGCLVKDYFPEPVTVSWNSGALTSGVHTFPAVLQSSGLYSLSSVVTVPSSSLGTQTYICNVNHKPSNTKVDKKVEPKSCDKTHTCPPCPAPDLLGDDDVFLFPPKPKDTLMISRTPEVTCVVVDVSDEDGEVKFNWYVDGVEVHNAKTKPREEQYNSTYRVVSVLTVLHQDWLNGKEYKCKVSNKALPRPIEKTISKAKGQPREPQVYTLPPSRDELTKNQVSLTCLVKGFYPSDIAVEWESNGQPENNYKTTPPVLDSDGSFFLYSKLTVDKSRWQQGNVFSCSVMHEALHNHYTQESLSLSP
light: not shown
notes: Homodimerized antibody; IL6R-BP256 is IL6R-BP208 with S239D
KD(IIaR)/KD(IIb) [1]: 8.4 ratio
Kd [2]: 11000 nM
Kd [3]: 21000 nM
Kd [4]: 87 nM
Kd [5]: 730 nM
Kd [6]: 2 nM
Relative KD [7]: 35.7 ratio
Relative KD [8]: 1.5 ratio
Relative KD [9]: 0 ratio

B5: IL6R-AP002/IL6R-BP257/IL6R-L (antibody, human IgG1, kappa)
heavy 1: B4 heavy with D241S, D358K, H437R, E441K
heavy 2: B4 heavy with D241E
light: not shown
notes: Heterodimerized antibody with S239E in one H chain only
KD(IIaR)/KD(IIb) [1]: 27.7 ratio
Kd [2]: 14000 nM
Kd [4]: 4.7 nM
Kd [5]: 130 nM
Kd [10]: 4900 nM
Kd [6]: 1.9 nM
Relative KD [7]: 657 ratio
Relative KD [8]: 8.3 ratio
Relative KD [9]: 0.2 ratio

B6: IL6R-BP257/IL6R-L (antibody, human IgG1, kappa)
heavy: B4 heavy with D241E
light: not shown
notes: Homodimerized antibody; IL6R-BP257 is IL6R-BP208 with S239E
KD(IIaR)/KD(IIb) [1]: 3 ratio
Kd [2]: 19000 nM
Kd [3]: 39000 nM
Kd [4]: 430 nM
Kd [5]: 1300 nM
Kd [6]: 0.31 nM
Relative KD [7]: 7.2 ratio
Relative KD [8]: 0.9 ratio
Relative KD [9]: 0 ratio
